Measurements from US11673947B2, “Target tissue-specific antigen-binding molecule” (Chugai Seiyaku Kabushiki Kaisha, priority 2012, dated 2023).
Substitutions are numbered along the chain they refer to.

Tests used:
human IL6 = human IL6 (Homo sapiens, UniProt P05231); assay: Phage ELISA, binding to human IL6 in the presence or absence of adenosine and/or ATP; conditions: with or without 10 mM adenosine and ATP
Protocol: (§1) Phage-containing culture supernatants were collected according to a conventional method (Methods Mol. Biol. (2002) 178, 133-145) from single colonies of E. coli obtained by the method described above. The collected culture supernatants were treated by ultrafiltration using NucleoFast 96 (MACHERY-NAGEL). 100 μl of the culture supernatants were added to each well of NucleoFast 96, and it was centrifuged (4500 g for 45 minutes) to remove flow through. After addition of 100 μl of H2O, the NucleoFast 96 was washed by centrifugation (4500 g for 30 minutes). Finally, 100 μl of TBS was added, and the NucleoFast 96 was allowed to stand for five minutes at room temperature. A phage suspension was collected from the supernatant in each well of the NucleoFast 96.
(§2) The purified phages, to which TBS or (adenosine+ATP)/TBS was added, were subjected to ELISA by the following procedure. A StreptaWell 96 microtiter plate (Roche) was coated overnight with 100 μl of TBS containing biotin-labeled antigen. […] Then, the developed color was assessed by measuring absorbance at 450 nm. […]
(§3) First, a StreptaWell 96 microtiter plate (Roche) was coated at room temperature for one hour or more with 100 μl of TBS containing a biotin-labeled antigen. […] Then, the developed color was assessed by measuring absorbance at 450 nm (FIGS. 25, 26, and 27). […]

human IgA-Fc = human IgA-Fc (Homo sapiens, UniProt P01876); assay: Phage ELISA, binding to human IgA-Fc in the presence or absence of adenosine and ATP (monovalent / multivalent display)
Chain of human IgA-Fc (P01876 with tags, fused parts or gaps isoform P01876-1): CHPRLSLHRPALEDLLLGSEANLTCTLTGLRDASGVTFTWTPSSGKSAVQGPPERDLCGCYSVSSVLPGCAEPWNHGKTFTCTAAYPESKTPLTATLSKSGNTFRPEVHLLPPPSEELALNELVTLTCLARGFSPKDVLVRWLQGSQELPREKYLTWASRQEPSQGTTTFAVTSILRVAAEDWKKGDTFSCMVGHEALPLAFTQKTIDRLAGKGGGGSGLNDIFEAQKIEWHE
Protocol: Culture supernatants containing phages were collected according to a conventional method (Methods Mol. Biol. (2002) 178, 133-145) from single colonies of E. coli obtained by the method described above. The collected culture supernatants were ultrafiltrated using NucleoFast 96 (MACHERY-NAGEL). 100 μl of the culture supernatants were added to each well of NucleoFast 96 and centrifuged (4500 g for 45 minutes) to remove flow-through. After 100 μl of H2O was added, the NucleoFast 96 was washed by centrifugation (4500 g for 30 minutes). Finally, 100 μl of TBS was added, and the NucleoFast 96 was allowed to stand for five minutes at room temperature. A phage solution contained in the supernatant in each well was collected.
Purified phages, to which TBS or (adenosine+ATP)/TBS was added, were subjected to ELISA by the following procedure. A StreptaWell 96 microtiter plate (Roche) was coated overnight with 100 μl of TBS containing a biotin-labeled antigen. After the antigen was removed from each well of the plate by washing with TBST, the wells were blocked with 250 μl of 2% skim milk/TBS for one hour or more. 2% skim milk/TBS was removed, and then the prepared, purified phages were added to each well. […] Then, the developed color was assessed by measuring absorbance at 450 nm.

[1] = biological target: HSA (human serum albumin) (Homo sapiens, UniProt P02768); assay: Phage ELISA, binding to HSA in the presence or absence of adenosine and/or ATP; conditions: with or without 10 mM adenosine and ATP
Protocol: as §1, §2, §3

Chain of human IL6 (P05231 30-212): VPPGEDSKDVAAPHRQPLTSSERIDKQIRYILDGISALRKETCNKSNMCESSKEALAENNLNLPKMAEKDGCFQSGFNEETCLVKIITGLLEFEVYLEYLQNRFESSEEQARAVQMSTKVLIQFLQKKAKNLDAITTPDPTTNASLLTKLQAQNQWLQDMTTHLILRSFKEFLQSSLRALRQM

B1: I6RLSA1-6_011: clone with antigen-binding activity to human IL-6 in the absence of ATP and adenosine (antibody, V domains shown)
VH: EVQLVESGGDLVKPGGGLRLSCAASGFTFSGYTMHWVRQAPGKGLEWVSSISSRSSHISYADSVKGRFTISRDNAKNSLYLQMNSLRAEDTAVYYCARFGRKYRMNWVFDYWGQGTLVTVSS
VL: QSALTQPPSASGSPGQTVTISCTGTSTDVGFYNYVSWYQQHPGKAPKLMIYDTSKRPSGVPDRFSGSKSGNTASLTVSGLQAEDEADYFCSTVTGIWSVGFGGGTKLTVL
antigen-binding activity to human IL-6 in the absence of ATP and adenosine (human IL6): had an antigen-binding activity

B2: IADL3C5-4_048: clone binding human IgA-Fc in the presence of adenosine and ATP; SEQ ID NOs: 100 and 101 (antibody, listed as Homo sapiens, V domains shown)
VH: B1 VH with Y32H, H35N, S56N, S59Y, F99Y, Y103F, R104M
VL: B1 VL with D52Q, T53N, T92L, V93R, T94S, G95S, I96N, W97L, V99P
antigen-binding activity in the presence of adenosine and ATP (human IgA-Fc): exhibits antigen-binding activity

B3: HSADSA1-6_020: clone with antigen-binding activity to HSA in the absence of ATP and adenosine (antibody, V domains shown)
VH: B1 VH with G31S, Y32H, H35N, S56N, I58A, S59T, R101K, Y103G, M105Y, N106L
VL: QSALTQPPSASGSPGQTVTISCTGTSSDVGDYNYVSWYQQHPGKAPKLMIYYVSKRPSGVPDRFSGSKSGNTASLTVSGLQAEDEADYFCSLTTDSLNPVFGGGTKLTVL
antigen-binding activity to human serum albumin (HSA) in the absence of ATP and adenosine [1]: had antigen-binding activity
